Kd and stoichiometry N data for four substances are collected here from article doi:10.1101/2020.08.21.260323.

In assay [1] the target is SpaKC, class III lanthipeptide synthetase (LanKC) homolog from S. sparsogenes ATCC 25498 (S. sparsogenes ATCC 25498). The assay can be described thus: MST.
For assay [2], the target named is SpaKC-SpaF complex (S. sparsogenes ATCC 25498). The assay is described as follows: MST.
Assay [3] deals with SpaF, FMN-dependent cysteine decarboxylase of the spa gene cluster (S. sparsogenes ATCC 25498). The assay is described as follows: crystal structure.

“TvaF, cysteine decarboxylase from thioviridamide biosynthesis (enzyme)” displayed a dissociation constant (Kd) in assay [1] of 2270 nM.

SpaA leader peptide: the equilibrium dissociation constant (Kd) in assay [1] is 275 nM.

Regarding SpaA precursor peptide, the results for the equilibrium dissociation constant (Kd) in assay [2] and in assay [1] were 94 nM and 217 nM, respectively.

In turn, “SpaF, FMN-dependent cysteine decarboxylase of the spa gene cluster (enzyme)” had a stoichiometry N in assay [3] of 12. The substance also gave a Kd in assay [1] of 182 nM.
